Blank lines part the entries; values can stand above or below the molecule they belong to.
Assay: analytical assay of enzyme activity with compounds of the formula I as substrate
Assay type: biochemical
Experimental: The configuration of the resulting 8-chloro-6-hydroxyoctanoic acid alkyl esters is determined by the enzyme employed. Thus, reduction of 8-chloro-6-oxooctanoic acid alkyl esters using alcohol dehydrogenase from Thermoanaeorubium brokii results in enantiopure (R)-8-chloro-6-hydroxyoctanoic acid alkyl esters. In the case of reduction using Lactobacillus brevis alcohol dehydrogenase, there is enantioselective formation of (S)-8-chloro-6-hydroxyoctanoic acid alkyl esters (ee>65%).

Activity (Standard 2-butanone, cofactor NAD(H), 100 mM TEA, pH 7.0): 20%
B1: Y-ADH: yeast alcohol dehydrogenase, commercially available (protein, UniProt P00330 2-348, looked up)
Alcohol dehydrogenase 1: SIPETQKGVIFYESHGKLEYKDIPVPKPKANELLINVKYSGVCHTDLHAWHGDWPLPVKLPLVGGHEGAGVVVGMGENVKGWKIGDYAGIKWLNGSCMACEYCELGNESNCPHADLSGYTHDGSFQQYATADAVQAAHIPQGTDLAQVAPILCAGITVYKALKSANLMAGHWVAISGAAGGLGSLAVQYAKAMGYRVLGIDGGEGKEELFRSIGGEVFIDFTKEKDIVGAVLKATDGGAHGVINVSVSEAAIEASTRYVRANGTTVLVGMPAGAKCCSDVFNQVVKSISIVGSYVGNRADTREALDFFARGLVKSPIKVVGLSTLPEIYEKMEKGQIVGRYVVDTSK

Activity (Standard acetophenone, cofactor NADP(H), 50 mM Kpi, 0.1 mM MgCl2, pH 7.0, iso-propanol 200 mM): 10%
B2: LKADH: Lactobacillus kefir ADH, commercially available (protein, UniProt Q6WVP7 1-252, looked up)
NADP-dependent (R)-specific …: MTDRLKGKVAIVTGGTLGIGLAIADKFVEEGAKVVITGRHADVGEKAAKSIGGTDVIRFVQHDASDEAGWTKLFDTTEEAFGPVTTVVNNAGIAVSKSVEDTTTEEWRKLLSVNLDGVFFGTRLGIQRMKNKGLGASIINMSSIEGFVGDPTLGAYNASKGAVRIMSKSAALDCALKDYDVRVNTVHPGYIKTPLVDDLEGAEEMMSQRTKTPMGHIGEPNDIAWICVYLASDESKFATGAEFVVDGGYTAQ

Activity (Standard 2-butanone, cofactor NADP(H), 50 mM Tris, 1 mM DTT, pH 7.8, HCO2Na, FDH, 37° C.): 6%
B3: TBADH: Thermoanaerobium brokii ADH, commercially available (protein, UniProt P14941 1-352, looked up)
NADP-dependent isopropanol …: MKGFAMLSIGKVGWIEKEKPAPGPFDAIVRPLAVAPCTSDIHTVFEGAIGERHNMILGHEAVGEVVEVGSEVKDFKPGDRVVVPAITPDWRTSEVQRGYHQHSGGMLAGWKFSNVKDGVFGEFFHVNDADMNLAHLPKEIPLEAAVMIPDMMTTGFHGAELADIELGATVAVLGIGPVGLMAVAGAKLRGAGRIIAVGSRPVCVDAAKYYGATDIVNYKDGPIESQIMNLTEGKGVDAAIIAGGNADIMATAVKIVKPGGTIANVNYFGEGEVLPVPRLEWGCGMAHKTIKGGLCPGGRLRMERLIDLVFYKRVDPSKLVTHVFRGFDNIEKAFMLMKDKPKDLIKPVVILA
